Residue numbers refer to the chain shown, from its start. Numbers in names are those of the source.
T1: PUF4 RNA-binding domain (Saccharomyces cerevisiae, UniProt P25339 537-888)
T1 sequence: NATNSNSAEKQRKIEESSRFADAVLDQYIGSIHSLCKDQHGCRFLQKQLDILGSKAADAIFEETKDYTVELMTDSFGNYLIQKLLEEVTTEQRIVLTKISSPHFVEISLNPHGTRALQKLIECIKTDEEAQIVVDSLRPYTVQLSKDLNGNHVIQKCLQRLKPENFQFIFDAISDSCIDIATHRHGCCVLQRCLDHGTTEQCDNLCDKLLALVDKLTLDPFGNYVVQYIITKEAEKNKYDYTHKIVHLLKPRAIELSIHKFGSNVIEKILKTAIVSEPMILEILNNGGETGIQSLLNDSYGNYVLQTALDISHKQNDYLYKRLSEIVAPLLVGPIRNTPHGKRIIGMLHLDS

B1: Id_ii_S2_P5E.2_K5.1_C5.2_H5.1_A5.1_F5.1_T5.2_[T11A]_[A12T] (ssRNA)
RNA: UUUGAUUAAUAUGAUAUCGUUCUUUCUCUUGUAUUAUUAAUUUCUUUCUCGAUAUCAUAUUAAUCUUU
B2: Id_ii_S2_P5E.2_K5.1_C5.2_H5.1_A5.1_F5.1_T5.2_[T11A]_[A12C] (ssRNA)
RNA: B1 RNA with U41C
B3: Id_ii_S2_P5E.3_K5.2_C5.2_[C-2T]_[T-1G]_H5.2_A5.1_F5.1_T5.2_[T11A]_[A12T] (ssRNA)
RNA: B1 RNA with C28U, U29G, G31A
B4: Id_ii_S2_P5E.2_K5.1_C5.2_[T-1A]_H5.1_A5.1_F5.1_T5.2_[A12T] (ssRNA)
RNA: B1 RNA with U29A, A40U
B5: Id_ii_S2_P5E.3_K5.2_C5.2_[C-2T]_[T-1A]_H5.2_A5.1_F5.1_T5.2_[T11C]_[A12G] (ssRNA)
RNA: B1 RNA with C28U, U29A, G31A, A40C, U41G
B6: Id_ii_S2_P5E.3_K5.2_C5.2_[C-2G]_H5.2_A5.1_F5.1_T5.2_[A12C] (ssRNA)
RNA: B1 RNA with C28G, G31A, A40U, U41C
B7: Id_ii_S2_P5E.3_K5.2_C5.2_[C-2G]_[T-1C]_H5.2_A5.1_F5.1_T5.2_[A12C] (ssRNA)
RNA: B1 RNA with C28G, U29C, G31A, A40U, U41C
B8: Id_ii_S2_P5E.3_K5.2_C5.2_[C-2G]_[T-1C]_H5.2_A5.1_F5.1_T5.2_[T11A]_[A12C] (ssRNA)
RNA: B1 RNA with C28G, U29C, G31A, U41C
B9: Id_ii_S2_P5E.3_K5.2_C5.2_[C-2T]_[T-1G]_H5.2_A5.1_F5.1_T5.2_[A12C] (ssRNA)
RNA: B1 RNA with C28U, U29G, G31A, A40U, U41C
B10: Id_ii_S2_P5E.2_K5.1_C5.2_[T-1C]_H5.1_A5.1_F5.1_T5.2_[A12C] (ssRNA)
RNA: B1 RNA with U29C, A40U, U41C
B11: Id_ii_S2_P5E.3_K5.2_C5.2_[C-2T]_[T-1G]_H5.2_A5.1_F5.1_T5.2_[A12T] (ssRNA)
RNA: B1 RNA with C28U, U29G, G31A, A40U
B12: Id_ii_S2_P5E.2_K5.1_C5.2_[T-1A]_H5.1_A5.1_F5.1_T5.2_[T11G]_[A12C] (ssRNA)
RNA: B1 RNA with U29A, A40G, U41C
B13: Id_ii_S2_P5E.3_K5.2_C5.2_[C-2T]_[T-1G]_H5.2_A5.1_F5.1_T5.2_[T11A] (ssRNA)
RNA: B1 RNA with C28U, U29G, G31A, U41A
B14: Id_ii_S2_P5E.2_K5.1_C5.2_H5.1_A5.1_F5.1_T5.2_[T11G]_[A12C] (ssRNA)
RNA: B1 RNA with A40G, U41C
B15: Id_ii_S2_P5E.2_K5.1_C5.2_[T-1A]_H5.1_A5.1_F5.1_T5.2_[T11A]_[A12T] (ssRNA)
RNA: B1 RNA with U29A
B16: Id_ii_S2_P5E.3_K5.2_C5.2_[C-2G]_[T-1C]_H5.2_A5.1_F5.1_T5.2_[T11C]_[A12C] (ssRNA)
RNA: B1 RNA with C28G, U29C, G31A, A40C, U41C
B17: Id_ii_S2_P5E.3_K5.2_C5.2_[C-2G]_[T-1C]_H5.2_A5.1_F5.1_T5.2_[T11C] (ssRNA)
RNA: B1 RNA with C28G, U29C, G31A, A40C, U41A
B18: Id_ii_S2_P5E.2_K5.1_C5.2_H5.1_A5.1_F5.1_T5.2_[A12T] (ssRNA)
RNA: B1 RNA with A40U
B19: Id_ii_S2_P5E.3_K5.2_C5.2_[C-2T]_[T-1G]_H5.2_A5.1_F5.1_T5.2_[T11G]_[A12C] (ssRNA)
RNA: B1 RNA with C28U, U29G, G31A, A40G, U41C
B20: Id_ii_S2_P5E.2_K5.1_C5.2_[T-1C]_H5.1_A5.1_F5.1_T5.2_[A12T] (ssRNA)
RNA: B1 RNA with U29C, A40U
B21: Id_ii_S2_P5E.2_K5.1_C5.2_[T-1A]_H5.1_A5.1_F5.1_T5.2_[T11G]_[A12T] (ssRNA)
RNA: B1 RNA with U29A, A40G
B22: Id_ii_S2_P5E.3_K5.2_C5.2_[C-2G]_H5.2_A5.1_F5.1_T5.2_[T11C]_[A12T] (ssRNA)
RNA: B1 RNA with C28G, G31A, A40C
B23: Id_ii_S2_P5E.3_K5.2_C5.2_[C-2T]_[T-1A]_H5.2_A5.1_F5.1_T5.2_[T11C]_[A12T] (ssRNA)
RNA: B1 RNA with C28U, U29A, G31A, A40C
B24: Id_ii_S2_P5E.2_K5.1_C5.2_[T-1A]_H5.1_A5.1_F5.1_T5.2_[T11A]_[A12C] (ssRNA)
RNA: B1 RNA with U29A, U41C

biological target: T1, PUF4 RNA-binding domain; experiment: Mg; RNA-MaP; 20 mM Na-HEPES pH 7.4, 30 mM KOAc, 0.75 mM MgCl2, 0.1% Tween-20, 5% glycerol, 0.1 mg/mL BSA, 2 mM DTT; 25 C; 0.0125-409.6 nM protein; details: tags: N-His6-TEV cleaved; C-SNAP kept, Cy3B-labelled; label: tethered on chip by stalled RNA polymerase

In order of falling Kd:
1. B17  546 nM
2. B7  455 nM
3. B8  381 nM
4. B16  133 nM
5. UCUCUUUGUAUUGGUAUCUCUU (ssRNA) [Ic_S1_P5E.1_K5.1_C5.1_H5.1_A5.1_[A7G]_F5.1_[T8G]_T5.1]  37.5 nM
6. B22  27.5 nM
7. B5  19.5 nM
8. UCUCUUUGUAUUCGUAUCUCUU (ssRNA) [Ib_S1_P5E.1_K5.1_C5.1_H5.1_A5.1_[A7C]_F5.1_[T8G]_T5.1]  19.1 nM
9. B6  16 nM
10. UCUCUUUGUAUCAAUAUCUCUU (ssRNA) [Ib_S1_P5E.1_K5.1_C5.1_H5.1_A5.1_[T6C]_F5.1_[T8A]_T5.1]  13.4 nM
11. UCUCUUUGUAUAAAUAUCUCUU (ssRNA) [Ib_S1_P5E.1_K5.1_C5.1_H5.1_A5.1_[T6A]_F5.1_[T8A]_T5.1]  11.7 nM
12. UCUCUUUGUAUUUGUAUCUCUU (ssRNA) [Ib_S1_P5E.1_K5.1_C5.1_H5.1_A5.1_[A7T]_F5.1_[T8G]_T5.1]  10.1 nM
13. B23  6.8 nM
14. B24  4.53 nM
15. B2  4.41 nM
16. B15  4.3 nM
17. B4  3.27 nM
18. B21  2.92 nM
19. B12  2.55 nM
20. B1  1.79 nM
21. B14  1.71 nM
22. B10  1.5 nM
23. B18  1.19 nM
24. B9  0.994 nM
25. B20  0.992 nM
26. B19  0.514 nM
27. B13  0.435 nM
28. B3  0.37 nM
29. B11  0.297 nM

From paper PMC9352680, “A comprehensive thermodynamic model for RNA binding by the Saccharomyces cerevisiae Pumilio protein PUF4”
